# In patent US20160017348A1 (University of California, published 2016):
# T1: H3K9me1 peptide (UniProt P59226 2-16, monomethyl-lysine at K9)
# T1 peptide (looked up): ARTKQTARKSTGGKA
# T2: H3K9me3 peptide (UniProt P59226 2-16, trimethyl-lysine at K9)
# T2 peptide (looked up): ARTKQTARKSTGGKA
# T3: H3(1-15)K9me2 peptide (UniProt P59226 2-16, dimethyl-lysine at K9)
# T3 construct: range 2-16; Residues 1-15 are stated for the peptide in the crystal structure; also called H3K9me2 peptide; H3K9me2
# T3 peptide (looked up): ARTKQTARKSTGGKA
# Legend:
# NRPE1-Flag (Pol V) = biological target: T4, NRPE1-Flag (Pol V) (Arabidopsis thaliana, UniProt Q5D869 1-1976); assay: immunoprecipitation and mass spectrometry
# T4 construct: Bait for the purification of the Pol V complex; also called Flag-tagged Pol V; not shown: Flag tag
# T4 sequence (Q5D869 whole entry): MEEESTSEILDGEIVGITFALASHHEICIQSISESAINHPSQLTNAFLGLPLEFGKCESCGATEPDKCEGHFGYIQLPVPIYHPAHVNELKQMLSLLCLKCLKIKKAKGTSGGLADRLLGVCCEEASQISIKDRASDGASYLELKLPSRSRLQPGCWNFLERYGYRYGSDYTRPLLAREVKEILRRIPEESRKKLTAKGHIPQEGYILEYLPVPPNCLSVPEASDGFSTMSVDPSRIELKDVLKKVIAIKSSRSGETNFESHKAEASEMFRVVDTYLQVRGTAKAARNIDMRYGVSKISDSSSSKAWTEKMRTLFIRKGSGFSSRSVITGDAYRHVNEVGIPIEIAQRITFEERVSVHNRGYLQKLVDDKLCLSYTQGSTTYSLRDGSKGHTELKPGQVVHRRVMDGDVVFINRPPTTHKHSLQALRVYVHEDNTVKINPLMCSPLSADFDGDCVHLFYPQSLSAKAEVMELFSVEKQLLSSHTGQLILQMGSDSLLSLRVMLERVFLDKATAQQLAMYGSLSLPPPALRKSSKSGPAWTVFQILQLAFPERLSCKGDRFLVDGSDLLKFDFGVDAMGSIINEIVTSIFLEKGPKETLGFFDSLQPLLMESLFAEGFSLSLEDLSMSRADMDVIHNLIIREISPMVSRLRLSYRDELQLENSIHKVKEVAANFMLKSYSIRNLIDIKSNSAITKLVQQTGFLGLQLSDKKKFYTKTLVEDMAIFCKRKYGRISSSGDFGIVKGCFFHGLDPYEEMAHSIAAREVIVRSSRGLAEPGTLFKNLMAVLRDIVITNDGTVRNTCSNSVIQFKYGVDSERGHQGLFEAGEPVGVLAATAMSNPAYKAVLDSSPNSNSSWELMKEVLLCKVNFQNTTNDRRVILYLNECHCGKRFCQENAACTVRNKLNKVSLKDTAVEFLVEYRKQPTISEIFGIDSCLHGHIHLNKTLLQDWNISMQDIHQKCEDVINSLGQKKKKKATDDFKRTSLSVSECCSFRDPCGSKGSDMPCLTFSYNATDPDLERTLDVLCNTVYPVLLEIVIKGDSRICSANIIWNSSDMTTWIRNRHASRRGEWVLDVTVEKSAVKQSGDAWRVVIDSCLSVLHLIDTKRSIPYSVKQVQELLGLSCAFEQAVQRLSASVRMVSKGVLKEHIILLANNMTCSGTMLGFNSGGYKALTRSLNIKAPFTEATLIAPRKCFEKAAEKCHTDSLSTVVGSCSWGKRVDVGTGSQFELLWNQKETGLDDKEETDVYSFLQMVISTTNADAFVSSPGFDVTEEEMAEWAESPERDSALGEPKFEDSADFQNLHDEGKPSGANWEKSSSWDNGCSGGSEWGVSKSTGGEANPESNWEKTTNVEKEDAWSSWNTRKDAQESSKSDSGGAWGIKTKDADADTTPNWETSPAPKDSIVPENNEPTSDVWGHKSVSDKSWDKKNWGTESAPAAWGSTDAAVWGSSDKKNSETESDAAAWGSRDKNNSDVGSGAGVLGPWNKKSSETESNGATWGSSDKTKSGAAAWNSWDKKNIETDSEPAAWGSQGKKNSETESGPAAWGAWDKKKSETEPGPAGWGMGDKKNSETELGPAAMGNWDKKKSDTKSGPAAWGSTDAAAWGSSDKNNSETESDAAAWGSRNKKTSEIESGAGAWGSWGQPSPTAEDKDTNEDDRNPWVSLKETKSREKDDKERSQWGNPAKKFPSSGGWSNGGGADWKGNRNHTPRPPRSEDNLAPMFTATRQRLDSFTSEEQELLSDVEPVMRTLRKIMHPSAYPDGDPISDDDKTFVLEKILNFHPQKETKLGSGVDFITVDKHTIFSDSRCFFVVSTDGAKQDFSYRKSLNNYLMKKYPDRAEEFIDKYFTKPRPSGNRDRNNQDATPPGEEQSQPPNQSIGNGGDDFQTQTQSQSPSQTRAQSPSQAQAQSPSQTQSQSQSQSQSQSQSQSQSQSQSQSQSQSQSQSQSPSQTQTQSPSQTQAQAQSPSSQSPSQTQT
# H3K9me1 peptide = biological target: T1, H3K9me1 peptide; assay: ITC; reference is the unmodified H3 peptide
# Experimental: (§1) All the binding experiments were performed on a Microcal calorimeter ITC 200 instrument at 6° C. First, protein samples were dialyzed overnight against a buffer of 100 mM NaCl, 2 mM β-mercaptoethanol and 20 mM HEPES, pH 7.5, at 4° C. Then the protein samples were diluted and the lyophilized peptides were dissolved with the same buffer. The titration was performed according to standard protocol and the data were fit using the Origin 7.0 program with a 1:1 binding model.
# H3K9me3 peptide = biological target: T2, H3K9me3 peptide; assay: ITC; reference is the unmodified H3 peptide
# Experimental: as §1
# H3(1-15)K9me2 peptide = biological target: T3, H3(1-15)K9me2 peptide; assay: ITC; reference is the unmodified H3 peptide
# Experimental: as §1
Binder,binding result (NRPE1-Flag (Pol V)),fold higher affinity than with unmodified H3 peptides (H3K9me1 peptide),fold higher affinity than with unmodified H3 peptides (H3K9me3 peptide),fold higher affinity than with unmodified H3 peptides (H3(1-15)K9me2 peptide)
"SUVH9 (other, Endogenous protein searched for by mass spectrometry in Pol V purifications; also called SUVH2/9 peptides) MGSSHIPLDPSLNPSPSLIPKLEPVTESTQNLAFQLPNTNPQALISSAVSDFNEATDFSSDYNTVAESARSAFAQRLQRHDDVAVLDSLTGAIVPVEENPEPEPNPYSTSDSSPSVATQRPRPQPRSSELVRITDVGPESERQFREHVRKTRMIYDSLRMFLMMEEAKRNGVGGRRARADGKAGKAGSMMRDCMLWMNRDKRIVGSIPGVQVGDIFFFRFELCVMGLHGHPQSGIDFLTGSLSSNGEPIATSVIVSGGYEDDDDQGDVIMYTGQGGQDRLGRQAEHQRLEGGNLAMERSMYYGIEVRVIRGLKYENEVSSRVYVYDGLFRIVDSWFDVGKSGFGVFKYRLERIEGQAEMGSSVLKFARTLKTNPLSVRPRGYINFDISNGKENVPVYLFNDIDSDQEPLYYEYLAQTSFPPGLFVQQSGNASGCDCVNGCGSGCLCEAKNSGEIAYDYNGTLIRQKPLIHECGSACQCPPSCRNRVTQKGLRNRLEVFRSLETGWGVRSLDVLHAGAFICEYAGVALTREQANILTMNGDTLVYPARFSSARWEDWGDLSQVLADFERPSYPDIPPVDFAMDVSKMRNVACYISHSTDPNVIVQFVLHDHNSLMFPRVMLFAAENIPPMTELSLDYGVVDDWNAKLAICN",no binding,,,
SHH1 SAWADEE domain (residues 125-258) (other) ADLAFEAKSARDYAWYDVSSFLTYRVLRTGELEVRVRFSGFDNRHDEWVNVKTSVRERSIPVEPSECGRVNVGDLLLCFQEREDQALYCDGHVLNIKRGIHDHARCNCVFLVRYELDNTEESLGLERICRRPEE,,~17 fold,~17 fold,~17 fold
"SUVH2 (other, Endogenous protein, detected or searched for by mass spectrometry in immunoprecipitates; also called SUVH2 peptides) MSTLLPFPDLNLMPDSQSSTAGTTAGDTVVTGKLEVKSEPIEEWQTPPSSTSDQSANTDLIAEFIRISELFRSAFKPLQVKGLDGVSVYGLDSGAIVAVPEKENRELIEPPPGFKDNRVSTVVVSPKFERPRELARIAILGHEQRKELRQVMKRTRMTYESLRIHLMAESMKNHVLGQGRRRRSDMAAAYIMRDRGLWLNYDKHIVGPVTGVEVGDIFFYRMELCVLGLHGQTQAGIDCLTAERSATGEPIATSIVVSGGYEDDEDTGDVLVYTGHGGQDHQHKQCDNQRLVGGNLGMERSMHYGIEVRVIRGIKYENSISSKVYVYDGLYKIVDWWFAVGKSGFGVFKFRLVRIEGQPMMGSAVMRFAQTLRNKPSMVRPTGYVSFDLSNKKENVPVFLYNDVDGDQEPRHYEYIAKAVFPPGIFGQGGISRTGCECKLSCTDDCLCARKNGGEFAYDDNGHLLKGKHVVFECGEFCTCGPSCKSRVTQKGLRNRLEVFRSKETGWGVRTLDLIEAGAFICEYAGVVVTRLQAEILSMNGDVMVYPGRFTDQWRNWGDLSQVYPDFVRPNYPSLPPLDFSMDVSRMRNVACYISHSKEPNVMVQFVLHDHNHLMFPRVMLFALENISPLAELSLDYGLADEVNGKLAICN",no binding,,,
